Reference: publication PMC3085011 (2011)

Target: T1, CNA1 (Saccharomyces cerevisiae, UniProt P23287)
T1 chain: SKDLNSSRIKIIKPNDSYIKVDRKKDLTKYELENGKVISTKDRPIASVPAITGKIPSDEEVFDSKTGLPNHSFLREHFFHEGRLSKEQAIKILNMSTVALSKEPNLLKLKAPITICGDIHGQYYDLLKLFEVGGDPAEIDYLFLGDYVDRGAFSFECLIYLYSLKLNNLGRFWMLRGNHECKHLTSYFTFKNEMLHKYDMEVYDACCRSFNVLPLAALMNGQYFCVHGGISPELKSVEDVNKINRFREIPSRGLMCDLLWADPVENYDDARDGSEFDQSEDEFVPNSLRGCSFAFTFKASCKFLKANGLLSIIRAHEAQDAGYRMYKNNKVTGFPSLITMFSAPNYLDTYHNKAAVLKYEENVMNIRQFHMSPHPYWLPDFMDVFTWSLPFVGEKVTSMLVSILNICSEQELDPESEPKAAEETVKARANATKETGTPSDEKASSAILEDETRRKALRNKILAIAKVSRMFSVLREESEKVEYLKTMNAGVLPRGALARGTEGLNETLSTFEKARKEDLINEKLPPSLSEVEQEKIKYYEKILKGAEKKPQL
Experiment: SPROX

B1: CPR1 (protein)
chain: not shown
modifications: cyclosporin A
  Kd: 120 nM
